According to US20220041753A1 (H LEE MOFFITT CANCER CENTER AND RESEARCH INSTITUTE, published 2022):

Molecular target: T1, ZNRF3 ECD (UniProt Q9ULT6 56-219, limits assumed)
T1 construct: extracellular domain; also called ZNRF3 extracellular domain; fluorescently labeled ZNRF3 ECDs
T1 sequence (looked up): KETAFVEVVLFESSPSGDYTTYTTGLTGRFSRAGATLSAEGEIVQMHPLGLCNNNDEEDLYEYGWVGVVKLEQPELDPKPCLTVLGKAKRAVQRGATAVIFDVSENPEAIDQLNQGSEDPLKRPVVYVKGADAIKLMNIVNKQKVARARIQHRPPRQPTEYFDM
Assay: surface plasmon resonance (FIG. 3B)

Kd: 80 nM
B1: ZNRF3-specific scFv "Z6" (scFv)
scFv: ASQVQLVQSGAEVKNPGASVKVSCKASGYAFTSYGISWVRQAPGQGLEWMGWISAYTRNTNYAQKFQGRVTLTTDTSTSTAYMELRSLRSDDTAIYYCARDARYSLGVGAFDVWGQGTMVTVSSGILGSGGGGSGGGGSGGGGSETTLTQSPAFMSATPGDKVSISCKASRDIDDDLNWYQQKPGEAAISIIQEATTLVPGIPPRFSGSGYGTDFTLTINNIESEDAAYYFCLQHDDVPYTFGQGTKLEIKSGIL
notes: the display fusion is not described; also called ZNRF3-specific single-chain antibody variable fragment (scFv)
